Like-named read-outs stand apart in the source and are kept apart here.
Columns and labels:
RecN [1] = biological target: T1, RecN (Bacillus subtilis, UniProt P17894); test: EMSA, nucleotide-dependent RecN-ssDNA complex; type: binding
T1 sequence (P17894 1-576): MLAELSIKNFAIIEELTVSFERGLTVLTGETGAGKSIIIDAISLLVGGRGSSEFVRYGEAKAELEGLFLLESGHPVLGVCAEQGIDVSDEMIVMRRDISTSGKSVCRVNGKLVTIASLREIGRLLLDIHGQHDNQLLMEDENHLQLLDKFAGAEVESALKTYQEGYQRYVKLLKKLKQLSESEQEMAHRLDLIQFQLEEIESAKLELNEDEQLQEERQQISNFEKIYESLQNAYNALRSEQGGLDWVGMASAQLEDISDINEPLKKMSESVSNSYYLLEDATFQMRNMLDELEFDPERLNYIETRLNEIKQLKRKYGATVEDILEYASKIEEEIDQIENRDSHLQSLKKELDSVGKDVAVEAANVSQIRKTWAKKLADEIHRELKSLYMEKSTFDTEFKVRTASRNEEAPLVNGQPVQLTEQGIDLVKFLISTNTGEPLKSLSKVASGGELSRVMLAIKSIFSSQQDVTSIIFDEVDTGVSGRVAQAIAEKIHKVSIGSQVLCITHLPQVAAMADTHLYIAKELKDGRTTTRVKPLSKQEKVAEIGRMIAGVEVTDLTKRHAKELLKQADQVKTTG

RecN [2] = biological target: T2, RecN (Bacillus subtilis, UniProt P17894 1-576); test: EMSA
T2 sequence: T1 sequence (P17894 1-576)

[3] = biological target: T3, RecN, high-S gradient fraction 1 (presumed octamer) (Bacillus subtilis, UniProt P17894 1-576); test: EMSA
T3 sequence: T1 sequence (P17894 1-576)

RecN [4] = biological target: T2, RecN; test: EMSA; remark: listed apart in the source
RecN [5] = biological target: T2, RecN; test: EMSA; remark: listed apart in the source

## Nc1ncnc2c1ncn2[C@@H]1O[C@H](COP(=O)(O)OP(=O)(O)OP(O)(O)=S)[C@@H](O)[C@H]1O [ATPγS]
RecN [1]; weakly hydrolysable analogue, ssDNA60, 2 mM MgCl2, pH 7.5, 37 °C
  EMSA, nucleotide-dependent RecN-ssDNA complex (CII/CIII) assembly: weakly hydrolysable analogue (ATPγS) present, CII and CIII formation was observed

## Nc1ncnc2c1ncn2[C@H]1C[C@H](O)[C@@H](COP(=O)(O)OP(=O)(O)OP(=O)(O)O)O1 [dATP]
RecN [1]; labelled ssDNA60 1 nM, RecN 10 nM, 2 mM MgCl2, pH 7.5, 2% PEG-6000, 37 °C, dATP 1 mM
  EMSA, nucleotide-dependent RecN-ssDNA complex (CII/CIII) assembly: also when ADP or dATP was present CIII and CII were formed

## CTCCTATTATGCTCA (ssDNA) [ssDNA15]
RecN [2]
  binding result: no binding

B1: ssDNA60 (ssDNA)
DNA: CTCCTATTATGCTCAACTTAAATGACCTACTCTATAAAGCTATAGTACTGCTATCTAATC
[3]
  binding result: binds
RecN [4]
  binding result: binds

B2: dsDNA60 (dsDNA)
DNA 1: B1 DNA
DNA 2: GATTAGATAGCAGTACTATAGCTTTATAGAGTAGGTCATTTAAGTTGAGCATAATAGGAG
RecN [5]
  binding result: no binding
